Measurements: patent publication US7029865
One block for each binder: values may come before it.

Experiments:
Test in all cases: competition
Settings in all cases: modification not given
[1] = target: T1, rhMC-4R (rhesus monkey)
T1 chain: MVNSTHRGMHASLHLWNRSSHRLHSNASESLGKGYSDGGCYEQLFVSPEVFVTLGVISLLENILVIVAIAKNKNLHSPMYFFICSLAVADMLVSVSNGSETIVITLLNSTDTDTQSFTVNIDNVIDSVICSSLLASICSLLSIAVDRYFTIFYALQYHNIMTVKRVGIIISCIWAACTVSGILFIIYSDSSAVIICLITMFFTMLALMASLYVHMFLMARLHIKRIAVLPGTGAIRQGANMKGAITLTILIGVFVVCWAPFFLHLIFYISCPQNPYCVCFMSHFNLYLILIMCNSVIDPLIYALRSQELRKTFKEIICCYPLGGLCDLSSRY

[2] = target: hMC-5R (human), P33032
Sequence of hMC-5R (human), P33032 (P33032 whole entry): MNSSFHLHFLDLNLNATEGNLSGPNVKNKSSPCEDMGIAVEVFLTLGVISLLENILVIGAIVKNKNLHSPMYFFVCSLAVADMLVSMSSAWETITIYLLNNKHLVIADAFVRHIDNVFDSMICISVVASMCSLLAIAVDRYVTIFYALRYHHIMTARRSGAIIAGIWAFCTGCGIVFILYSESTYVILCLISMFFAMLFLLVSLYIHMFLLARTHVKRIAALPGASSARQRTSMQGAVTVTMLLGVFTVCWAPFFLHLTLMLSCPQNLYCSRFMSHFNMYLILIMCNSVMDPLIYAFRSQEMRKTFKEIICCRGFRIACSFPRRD

[3] = target: hMC-4R (human), P32245
[4] = target: hMC-3R (human), P41968
Sequence of hMC-3R (human), P41968 (P41968 whole entry): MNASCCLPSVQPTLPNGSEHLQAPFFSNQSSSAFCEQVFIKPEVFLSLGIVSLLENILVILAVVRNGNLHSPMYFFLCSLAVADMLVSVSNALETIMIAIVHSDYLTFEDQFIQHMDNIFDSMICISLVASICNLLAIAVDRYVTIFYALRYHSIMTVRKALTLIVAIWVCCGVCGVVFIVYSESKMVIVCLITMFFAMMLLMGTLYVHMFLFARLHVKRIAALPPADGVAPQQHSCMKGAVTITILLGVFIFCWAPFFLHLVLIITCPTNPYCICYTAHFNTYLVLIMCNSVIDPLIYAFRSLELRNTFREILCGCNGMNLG

IC50 [1]: 27 nM
B1: alpha-MSH, P01189 (peptide)
chain: SYSMEHFRWGKPV

IC50 [2]: 0.4 nM
IC50 [3]: 6 nM
IC50 [4]: 6 nM
IC50 [1]: 1.3 nM
B2: ACTH1-39, P01189 (peptide)
chain: SYSMEHFRWGKPVGKKRRPVKVYPNGAEDESAEAFPLEF
